Measurements: publication PMC3548785

Target: His-ASF/SF2 (UniProt Q07955)
Experiment: intrinsic tryptophan fluorescence quenching
Settings: 100 mM KCl, 20 mM Tris-HCl pH 7.5, room temperature, 100 nM His-ASF/SF2, excitation 280 nm, emission 340 nm

Chain of His-ASF/SF2 (Q07955 whole entry): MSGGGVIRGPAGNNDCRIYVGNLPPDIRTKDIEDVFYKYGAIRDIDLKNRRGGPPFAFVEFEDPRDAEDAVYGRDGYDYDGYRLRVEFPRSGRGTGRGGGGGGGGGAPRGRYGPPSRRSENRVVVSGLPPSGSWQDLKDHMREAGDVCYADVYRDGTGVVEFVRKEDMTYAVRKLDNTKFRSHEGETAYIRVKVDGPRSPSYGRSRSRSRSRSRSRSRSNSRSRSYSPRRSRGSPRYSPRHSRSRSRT

Genomic HDV RNA
Kd: 40 nM
